Substrate in data set [1]: O=C(Cc1ccccc1)N[C@H]1CN(S(=O)(=O)O)C1=O
Kind of data set: (§1) Binding affinity to class A beta lactamase of Staphylococcus aureus PC1.

Substrate in data set [2]: O=C(NCc1ccccc1)C1CN(S(=O)(=O)O)C1=O
The description is as §1.

Substrate in data set [3]: O=C(Cc1ccccc1)N[C@H]1CN(S(=O)(=O)O)C1=O
Kind of data set: (§2) Binding affinity to class D beta lactamase OXA1 of Escherichia coli.

Substrate in data set [4]: O=C(NCc1ccccc1)C1CN(S(=O)(=O)O)C1=O
The description is as §2.

Substrate in data set [5]: O=C(Cc1ccccc1)N[C@H]1CN(S(=O)(=O)O)C1=O
Kind of data set: (§3) Binding affinity to TEM class A beta lactamase from the TEM2 plasmid. As to conditions: Escherichia coli.

Substrate in data set [6]: O=C(NCc1ccccc1)C1CN(S(=O)(=O)O)C1=O
The data set is described as §3. To be noted: Escherichia coli.

Substrate in data set [7]: O=C(Cc1ccccc1)N[C@H]1CN(S(=O)(=O)O)C1=O
Kind of data set: (§4) Binding affinity to class C beta lactamase of Enterobacter cloacae P99.

Substrate in data set [8]: O=C(NCc1ccccc1)C1CN(S(=O)(=O)O)C1=O
Described as §4.

The Km is the concentration of substrate that gives half-maximal velocity.

B1: Beta-lactamase (Staphylococcus aureus), P00807 (protein)
chain: MKKLIFLIVIALVLSACNSNSSHAKELNDLEKKYNAHIGVYALDTKSGKEVKFNSDKRFAYASTSKAINSAILLEQVPYNKLNKKVHINKDDIVAYSPILEKYVGKDITLKALIEASMTYSDNTANNKIIKEIGGIKKVKQRLKELGDKVTNPVRYEIELNYYSPKSKKDTSTPAAFGKTLNKLIANGKLSKENKKFLLDLMLNNKSGDTLIKDGVPKDYKVADKSGQAITYASRNDVAFVYPKGQSEPIVLVIFTNKDNKSDKPNDKLISETAKSVMKEF
Turning to B1, the results for the Km in data set [1] and in data set [2] were 70 µM and 300 µM, respectively.

B2: Beta-lactamase OXA-1 (Escherichia coli), P13661 (protein)
chain: MKNTIHINFAIFLIIANIIYSSASASTDISTVASPLFEGTEGCFLLYDASTNAEIAQFNKAKCATQMAPDSTFKIALSLMAFDAEIIDQKTIFKWDKTPKGMEIWNSNHTPKTWMQFSVVWVSQEITQKIGLNKIKNYLKDFDYGNQDFSGDKERNNGLTEAWLESSLKISPEEQIQFLRKIINHNLPVKNSAIENTIENMYLQDLDNSTKLYGKTGAGFTANRTLQNGWFEGFIISKSGHKYVFVSALTGNLGSNLTSSIKAKKNAITILNTLNL
As for B2, the Km in data set [3] is 29 µM; in data set [4], 2300 µM.

B3: Beta-lactamase TEM (Escherichia coli), P62593 (protein)
chain: MSIQHFRVALIPFFAAFCLPVFAHPETLVKVKDAEDQLGARVGYIELDLNSGKILESFRPEERFPMMSTFKVLLCGAVLSRVDAGQEQLGRRIHYSQNDLVEYSPVTEKHLTDGMTVRELCSAAITMSDNTAANLLLTTIGGPKELTAFLHNMGDHVTRLDRWEPELNEAIPNDERDTTMPAAMATTLRKLLTGELLTLASRQQLIDWMEADKVAGPLLRSALPAGWFIADKSGAGERGSRGIIAALGPDGKPSRIVVIYTTGSQATMDERNRQIAEIGASLIKHW
In the case of B3, the Km in data set [5] was found to be 6800 µM; in data set [6], 2500 µM.

B4: Beta-lactamase class C (Enterobacter cloacae), Q59401 (protein)
chain: MMKKSLCCALLLGISCSALATPVSEKQLAEVVANTVTPLMKAQSVPGMAVAVIYQGKPHYYTFGKADIAANKPVTPQTLFELGSISKTFTGVLGGDAIARGEISLDDPVTRYWPQLTGKQWQGIRMLDLATYTAGGLPLQVPDEVTDNASLLRFYQNWQPQWKPGTTRLYANASIGLFGALAVKPSGMPYEQAMTTRVLKPLKLDHTWINVPKAEEAHYAWGYRDGKAVRAVRVSPGMLDAQAYGVKTNVQDMANWVMANMAPENVADASLKQGIALAQSRYWRIGSMYQGLGWEMLNWPVEANTVVEGSDSKVALAPLPVAEVNPPAPPVKASWVHKTGSTGGFGSYVAFIPEKQIGIVMLANTSYPNPARVEAAYHILEALQ
B4: the figures for the Km in data set [7] and in data set [8] were 1000 µM and 75 µM, respectively.

The values above are taken from ChEMBL document CHEMBL1138116, “Synthesis and reactivity with beta-lactamases of a monobactam bearing a retro-amide side chain” (Bioorg Med Chem Lett, 2006).
